Here are results for 2 substances from publication PMC10933150.

Assay [1] has as its target α7-mCherry (human α7 nicotinic acetylcholine receptor subunit with mCherry in the M3-M4 cytoplasmic loop) (human) (UniProt P36544). Briefly: FRET or BRET; acceptor photobleaching FRET (apFRET) by confocal microscopy in live HEK293 cells 2 days after transfection; eGFP donor, mCherry acceptor; region of interest in the ER; in DMEM at 37 °C and 5% CO2.
For assay [2] the target is unchanged.
The target is the same in assay [3]. This is another data set of the same source.

Chain of UniProt P36544 (P36544 23-502): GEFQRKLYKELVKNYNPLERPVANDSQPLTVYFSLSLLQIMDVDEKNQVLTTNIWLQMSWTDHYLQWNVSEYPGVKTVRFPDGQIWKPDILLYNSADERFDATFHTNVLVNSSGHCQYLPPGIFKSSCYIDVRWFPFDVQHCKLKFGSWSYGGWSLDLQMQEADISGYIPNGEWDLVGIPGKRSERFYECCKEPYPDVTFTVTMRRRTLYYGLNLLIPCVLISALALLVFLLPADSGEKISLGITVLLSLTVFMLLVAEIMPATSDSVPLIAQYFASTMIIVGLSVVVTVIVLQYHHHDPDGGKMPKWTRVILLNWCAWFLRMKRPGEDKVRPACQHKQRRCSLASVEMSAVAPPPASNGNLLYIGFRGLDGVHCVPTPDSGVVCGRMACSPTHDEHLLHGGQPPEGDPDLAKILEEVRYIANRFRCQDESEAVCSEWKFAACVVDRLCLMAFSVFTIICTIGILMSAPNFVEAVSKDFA

Consider “eGFP-RIC3WT (wild-type RIC3 with eGFP fused to the N-terminus) (from UniProt Q7Z5B4-5 29-368) (natural protein)”, for which the FRET efficiency (EF) in assay [1] amounted to 7.24%.
“eGFP-RIC3G88R (RIC3 variant G88R with eGFP fused to the N-terminus) (from UniProt Q7Z5B4-5 29-368) (natural protein)” returned an FRET efficiency (EF) in assay [1] of 10.7%. In assay [2], this substance came in with a fold decrease in amplitude of maximal currents elicited by 1 mM acetylcholine in Xenopus oocytes (level of functional α7 nAChR); untagged α7 and RIC3G88R, tagged constructs gave the same pattern (data not shown) of 1.5 fold. In addition, in assay [3], the ^125I-α-bungarotoxin binding to intact HEK293 cells (cell surface α7), decrease with eGFP-RIC3G88R against eGFP-RIC3WT, α7:RIC3 cDNA 1:1 or 5:1 stood at 50%.
